B1: Subtilisin Carlsberg, native (pure subtilisin standard) (Bacillus licheniformis) (protein)
chain: AQTVPYGIPLIKADKVQAQGFKGANVKVAVLDTGIQASHPDLNVVGGASFVAGEAYNTDGNGHGTHVAGTVAALDNTTGVLGVAPSVSLYAVKVLNSSGSGSYSGIVSGIEWATTNGMDVINMSLGGASGSTAMKQAVDNAYAKGVVVVAAAGNSGSSGNTNTIGYPAKYDSVIAVGAVDSNSNRASFSSVGAELEVMAPGAGVYSTYPTNTYATLNGTSMASPHVAGAAALILSKHPNLSASQVRNRLSSTATYLGSSFYYGKGLINVEAAAQ
notes: purchased Sigma Chemical Co
B2: Subtilisin Carlsberg, unmodified fraction purified from the PEG modification reaction mixture (Bacillus licheniformis) (protein)
chain: B1 chain
notes: purchased Sigma Chemical Co

Columns and labels:
[1] = substrate: C[C@H](NC(=O)CCC(=O)O)C(=O)N[C@@H](C)C(=O)N1CCC[C@H]1C(=O)N[C@@H](Cc1ccccc1)C(=O)Nc1ccc([N+](=O)[O-])cc1; test: Hydrolysis of peptide p-nitroanilide substrate, kinetic constants; type: biochemical; conditions: other: Tris-HCl buffer (0.1M, pH 8.6)
Procedure: (§1) Kinetic studies of the modified protein were performed using substrate (N-succinyl-L-alanyl-L-alanyl-L-prolyl-L-phenylalanyl p-nitroanilide) in 0.1M Tris-HCl buffer, pH 8.6. The purified HPLC fractions (three total) were tested for activity while increasing the substrate concentrations in equal increments. Substrate concentration versus rate was plotted to determine Vmax and Km using non-linear regression analysis. A standard of pure subtilisin was analyzed as a control.
As set forth above, the activity of the modified enzymes was assessed with the artificial peptide substrate succinyl-L-alanyl-L-alanyl-L-prolyl-L-phenylalanyl p-nitroanilide. A sample of 30 mg modified protein powder was dissolved in tetrahydrofuran, and filtered with a solvent resistant 0.22 μm filter in order to remove the insoluble native protein. The solvent was evaporated and, as mentioned above, values for Vmax and Km were determined.

[2] = substrate: C[C@H](NC(=O)CCC(=O)O)C(=O)N[C@@H](C)C(=O)N1CCC[C@H]1C(=O)N[C@@H](Cc1ccccc1)C(=O)Nc1ccc([N+](=O)[O-])cc1; test: as above; type: biochemical; conditions: other: Tris-HCl buffer (0.1M, pH 8.6); remark: listed apart in the source
Procedure: as §1
Before reacting PEG-subtilisin with other materials it is necessary to fully characterize the activity and stability of the "bio-monomer". Using solubility, IMAC, and HPLC the modified protein was separated into predominantly singly or doubly modified protein fractions. […] Thus, the activities and stabilities noted are average properties for the sample being studied. For comparison to the native protein, unmodified protein was purified from the modification reaction mixture and characterized to some degree.
As set forth above, the activity of the modified enzymes was assessed with the artificial peptide substrate succinyl-L-alanyl-L-alanyl-L-prolyl-L-phenylalanyl p-nitroanilide. […] The solvent was evaporated and, as mentioned above, values for Vmax and Km were determined.

Protein | Km [1] | Km [2]
B1 | 120 µM | 
B2 |  | 170 µM
